Measured values reported in patent US20150010572A1 (SAMSUNG ELECTRONICS, published 2015).

T1: Ang-2 (R&D systems; 623-AN-025/CF) (human, UniProt O15123 19-496)
T1 sequence: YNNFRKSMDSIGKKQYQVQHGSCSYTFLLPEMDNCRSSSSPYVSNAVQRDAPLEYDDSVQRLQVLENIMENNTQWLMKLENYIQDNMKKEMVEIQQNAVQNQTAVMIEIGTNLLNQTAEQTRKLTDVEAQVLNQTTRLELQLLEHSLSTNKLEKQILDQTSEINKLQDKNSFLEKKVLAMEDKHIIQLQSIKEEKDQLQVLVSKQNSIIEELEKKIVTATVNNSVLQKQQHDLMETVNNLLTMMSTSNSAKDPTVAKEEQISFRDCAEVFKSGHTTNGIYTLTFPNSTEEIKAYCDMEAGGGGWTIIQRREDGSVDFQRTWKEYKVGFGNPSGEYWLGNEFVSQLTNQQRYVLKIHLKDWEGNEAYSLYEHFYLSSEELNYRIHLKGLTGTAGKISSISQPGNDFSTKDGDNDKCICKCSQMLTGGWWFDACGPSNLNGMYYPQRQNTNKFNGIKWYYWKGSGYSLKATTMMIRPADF

B1: SAIT-Ang-2-AB-m7F8 (antibody, V domains shown)
VH: DVQLQESGPGLVKPSQSLSLTCTVTGYSITSDYAWNWIRQFPGNKLEWMGYISYSGSTSYNPSLKSRISITRDTSKNQFFLQLNSVTPEDTATYYCARSTFGHYVSSMDYWGQGTSVTVSS
VL: SIVMTQTPKLLLVSAGDRVTITCKASQSASNDVAWYQQKPGQSPKLLIYYASNRYTGVPDRFTGSGYGTDFTFAISTVQAEDLAIYFCQQDYSSPPTFGGGTKLEIK
B2: FLAG-tagged hAng-2 (ligand)
chain: DYKDDDDKYNNFRKSMDSIGKKQYQVQHGSCSYTFLLPEMDNCRSSSSPYVSNAVQRDAPLEYDDSVQRLQVLENIMENNTQWLMKLENYIQDNMKKEMVEIQQNAVQNQTAVMIEIGTNLLNQTAEQTRKLTDVEAQVLNQTTRLELQLLEHSLSTNKLEKQILDQTSEINKLQDKNSFLEKKVLAMEDKHIIQLQSIKEEKDQLQVLVSKQNSIIEELEKKIVTATVNNSVLQKQQHDLMETVNNLLTMMSTSNSAKDPTVAKEEQISFRDCAEVFKSGHTTNGIYTLTFPNSTEEIKAYCDMEAGGGGWTIIQRREDGSVDFQRTWKEYKVGFGNPSGEYWLGNEFVSQLTNQQRYVLKIHLKDWEGNEAYSLYEHFYLSSEELNYRIHLKGLTGTAGKISSISQPGNDFSTKDGDNDKCICKCSQMLTGGWWFDACGPSNLNGMYYPQRQNTNKFNGIKWYYWKGSGYSLKATTMMIRPADF
notes: also called FLAG-Ang-2

What was measured:
[1] = biological target: T1, Ang-2 (R&D systems; 623-AN-025/CF); assay: cell-based or functional assay
[2] = biological target: mutant Ang-2 protein, A449 substituted with alanine (FLAG-tagged at N-terminal) (human) (UniProt O15123); assay: ELISA, antibody coated, 250 ng FLAG-tagged mutant Ang-2, anti-FLAG-HRP, OD450 relative to native Ang-2
[3] = biological target: T2, integrin alphaVbeta3 (R&D systems) (human, UniProt P06756 31-992; P05106 27-718); assay: ELISA, integrin coated at 5 ug/ml, FLAG-Ang-2 10 ug/ml, anti-FLAG-HRP
T2 construct: Bought heterodimer coated on an ELISA plate; also called αVβ3; purified alphaVbeta3 protein
Description: (§1) An ELISA plate was coated with diluting solutions of three kinds of integrin (integrin; alpha5beta1 (α5β1; α5: NCBI Accession No. P08648, β1: NCBI Accession No. P05556), alphaVbeta1 (αVβ1; αV: NCBI Accession No. P06756, β1: NCBI Accession No. P05556), and alphaVbeta3 (αVβ3; αV: NCBI Accession No. P06756, β3: NCBI Accession No. P05106); R&D systems) proteins diluted in PBS at a concentration of 5 μg/ml (18 hours, 4° C.) and then blocked with 1% (v/v) BSA at a room temperature for 1 hour. Thereafter, the plate was treated with Ang-2 protein (FLAG-Ang-2, 0.1 ml of Ang-2 protein solution diluted in PBS at a concentration of 10 μg/ml) tagged with a FLAG sequence ([…], Sigma) at N-terminal, incubated at a room temperature for 2 hours, and washed five times with 0.05% PBST (0.05% (v/v) Tween-20-containing phosphate buffer saline). After that, an anti-FLAG antibody (Sigma) conjugated with horseradish peroxidase (HRP) was added to react, and the plate was washed again five times with PBST. Bindings between Ang-2 and the three kinds of integrins were identified indirectly by measuring the amounts of the anti-FLAG antibody remaining in the ELISA plate via color development reaction using TMB (3,3,5,5-tetramethylbenzidine) as a substrate of HRP. As a negative control, those that were blocked only (treated with BSA only) without Ang-2 protein treatment were used.

[4] = biological target: T3, integrin alpha5beta1 (R&D systems) (human, UniProt P08648 42-995; P05556 21-728); assay: as above
T3 construct: Bought heterodimer coated on an ELISA plate; also called α5β1
Description: as §1

[5] = biological target: T4, integrin alphaVbeta1 (R&D systems) (human, UniProt P06756 31-992; P05556 21-728); assay: as above
T4 construct: Bought heterodimer coated on an ELISA plate; also called αVβ1
Description: as §1

T3 sequence (P08648 42-995 limits assumed, chain 1 of 2): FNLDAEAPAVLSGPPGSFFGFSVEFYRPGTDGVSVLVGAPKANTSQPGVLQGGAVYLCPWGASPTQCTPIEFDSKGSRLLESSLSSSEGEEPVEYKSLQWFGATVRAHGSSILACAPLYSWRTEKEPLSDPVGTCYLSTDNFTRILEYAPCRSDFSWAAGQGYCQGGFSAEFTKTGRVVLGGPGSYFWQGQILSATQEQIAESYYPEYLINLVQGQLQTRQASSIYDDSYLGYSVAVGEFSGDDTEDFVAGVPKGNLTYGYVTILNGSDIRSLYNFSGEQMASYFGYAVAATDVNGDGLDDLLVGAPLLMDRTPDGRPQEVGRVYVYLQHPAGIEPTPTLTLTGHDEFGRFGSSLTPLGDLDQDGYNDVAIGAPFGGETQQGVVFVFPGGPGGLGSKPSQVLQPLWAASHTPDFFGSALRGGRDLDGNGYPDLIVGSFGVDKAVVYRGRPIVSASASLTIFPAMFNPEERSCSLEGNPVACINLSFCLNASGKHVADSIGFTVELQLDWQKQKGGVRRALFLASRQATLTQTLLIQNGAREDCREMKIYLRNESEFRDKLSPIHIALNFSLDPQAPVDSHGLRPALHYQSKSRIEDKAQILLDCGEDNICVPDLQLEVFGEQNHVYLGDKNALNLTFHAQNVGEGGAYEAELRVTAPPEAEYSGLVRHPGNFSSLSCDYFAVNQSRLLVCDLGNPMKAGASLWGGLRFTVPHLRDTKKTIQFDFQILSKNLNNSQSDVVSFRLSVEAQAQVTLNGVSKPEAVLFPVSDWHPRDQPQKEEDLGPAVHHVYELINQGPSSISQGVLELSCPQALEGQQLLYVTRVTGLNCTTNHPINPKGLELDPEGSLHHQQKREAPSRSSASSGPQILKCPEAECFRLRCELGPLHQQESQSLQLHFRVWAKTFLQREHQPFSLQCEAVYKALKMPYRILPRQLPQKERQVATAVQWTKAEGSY
T3 sequence (P05556 21-728 limits assumed, chain 2 of 2): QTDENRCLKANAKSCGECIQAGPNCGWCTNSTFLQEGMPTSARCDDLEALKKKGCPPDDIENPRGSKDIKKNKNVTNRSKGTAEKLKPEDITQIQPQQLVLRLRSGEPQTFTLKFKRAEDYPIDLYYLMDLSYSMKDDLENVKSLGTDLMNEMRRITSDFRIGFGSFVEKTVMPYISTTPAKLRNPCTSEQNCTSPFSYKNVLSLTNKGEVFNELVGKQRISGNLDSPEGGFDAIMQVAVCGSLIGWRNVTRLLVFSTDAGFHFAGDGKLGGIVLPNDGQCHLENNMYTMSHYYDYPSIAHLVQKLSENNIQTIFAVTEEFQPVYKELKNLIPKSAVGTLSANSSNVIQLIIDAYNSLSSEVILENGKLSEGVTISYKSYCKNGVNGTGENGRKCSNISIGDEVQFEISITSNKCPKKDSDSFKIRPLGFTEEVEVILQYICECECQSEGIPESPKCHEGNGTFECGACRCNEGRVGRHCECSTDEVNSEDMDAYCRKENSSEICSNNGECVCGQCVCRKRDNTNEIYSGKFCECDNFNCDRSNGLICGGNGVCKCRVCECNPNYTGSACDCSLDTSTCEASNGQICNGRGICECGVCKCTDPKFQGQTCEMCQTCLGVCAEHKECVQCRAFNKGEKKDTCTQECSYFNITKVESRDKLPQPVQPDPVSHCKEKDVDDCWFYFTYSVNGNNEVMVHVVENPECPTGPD
T2 sequence (P06756 31-992 limits assumed, chain 1 of 2): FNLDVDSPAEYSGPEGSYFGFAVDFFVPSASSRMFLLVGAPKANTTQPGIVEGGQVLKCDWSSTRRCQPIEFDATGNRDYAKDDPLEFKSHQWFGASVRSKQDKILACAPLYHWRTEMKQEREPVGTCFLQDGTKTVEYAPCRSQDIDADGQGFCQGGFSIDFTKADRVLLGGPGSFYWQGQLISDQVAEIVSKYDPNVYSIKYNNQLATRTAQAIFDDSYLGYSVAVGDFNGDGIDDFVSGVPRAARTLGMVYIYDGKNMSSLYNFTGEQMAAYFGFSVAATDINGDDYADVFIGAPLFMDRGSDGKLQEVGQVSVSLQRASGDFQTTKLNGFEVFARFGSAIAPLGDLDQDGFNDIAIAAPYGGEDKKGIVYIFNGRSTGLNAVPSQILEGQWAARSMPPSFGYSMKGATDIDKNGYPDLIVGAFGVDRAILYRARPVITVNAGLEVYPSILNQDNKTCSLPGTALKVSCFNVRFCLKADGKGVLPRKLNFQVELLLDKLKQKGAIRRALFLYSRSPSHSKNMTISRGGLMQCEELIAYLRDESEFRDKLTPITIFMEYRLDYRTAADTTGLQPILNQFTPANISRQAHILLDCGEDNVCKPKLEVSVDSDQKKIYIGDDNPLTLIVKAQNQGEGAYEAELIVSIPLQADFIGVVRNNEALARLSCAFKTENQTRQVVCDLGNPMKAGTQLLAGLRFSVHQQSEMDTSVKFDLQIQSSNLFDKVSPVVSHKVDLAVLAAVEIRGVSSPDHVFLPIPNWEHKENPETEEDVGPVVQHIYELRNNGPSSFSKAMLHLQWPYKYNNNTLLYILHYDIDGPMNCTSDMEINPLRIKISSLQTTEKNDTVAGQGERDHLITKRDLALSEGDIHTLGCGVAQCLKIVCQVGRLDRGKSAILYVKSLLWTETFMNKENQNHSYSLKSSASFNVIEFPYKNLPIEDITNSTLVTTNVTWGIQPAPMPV
T2 sequence (P05106 27-718 limits assumed, chain 2 of 2): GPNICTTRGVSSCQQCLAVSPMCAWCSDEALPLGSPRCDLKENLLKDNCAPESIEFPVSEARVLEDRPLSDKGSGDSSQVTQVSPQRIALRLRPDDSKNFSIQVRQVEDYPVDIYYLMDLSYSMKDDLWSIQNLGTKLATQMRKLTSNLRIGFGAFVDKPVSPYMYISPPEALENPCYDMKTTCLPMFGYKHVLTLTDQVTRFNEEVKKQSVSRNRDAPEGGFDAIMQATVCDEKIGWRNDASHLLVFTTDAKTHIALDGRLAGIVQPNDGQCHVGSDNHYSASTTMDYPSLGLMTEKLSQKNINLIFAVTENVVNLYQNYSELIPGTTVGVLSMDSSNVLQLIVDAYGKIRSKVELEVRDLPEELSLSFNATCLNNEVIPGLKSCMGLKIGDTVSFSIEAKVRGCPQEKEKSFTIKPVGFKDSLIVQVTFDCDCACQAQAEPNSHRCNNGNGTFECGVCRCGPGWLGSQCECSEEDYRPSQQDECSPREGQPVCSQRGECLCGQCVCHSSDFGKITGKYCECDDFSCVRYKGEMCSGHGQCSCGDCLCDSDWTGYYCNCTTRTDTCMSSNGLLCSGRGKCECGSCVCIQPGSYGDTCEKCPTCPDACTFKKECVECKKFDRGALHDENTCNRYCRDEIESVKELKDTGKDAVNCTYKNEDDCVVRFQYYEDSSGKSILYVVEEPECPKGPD
T4 sequence (P06756 31-992 limits assumed, chain 1 of 2): as the sequence (P06756 31-992 limits assumed, chain 1 of 2) above
T4 sequence (P05556 21-728 limits assumed, chain 2 of 2): as the sequence (P05556 21-728 limits assumed, chain 2 of 2) above

Row | Binder | Ang-2-depedent Cell Adhesion Degree (%) [1] | % at RBD binding (mutant Ang-2 against native Ang-2) [2] | binding result [3] | binding result [4] | binding result [5]
1 | B1 | 35.1% | 94.1% | – | – | –
2 | B2 | – | – | binds | binds | binds
